According to the supplement of paper PMC7125110:
± gives the standard error. For some of these results: Fewer inactive variants are shown than the library holds.

B1: glmS ribozyme (parent)
chain: AUAAAAGCGCCAGAACUACAGAAAUGUAGUUGACGAGGAGGAGGUUUAUCGAAUUUUCGGCGGAUGCCUCCAAA

Tests used:
Conditions in all cases: with glucosamine-6-phosphate
[1] = variants of: B1; test: kcat; higher = faster cleavage; RNA array
Procedure, shortened: (§1)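 The measurements used barcoded ribozyme variants on sequenced MiSeq chips, transcribed in situ by E. coli RNA polymerase and tracked at 37 °C with a hybridised Cy3 probe. Glucosamine-6-phosphate, 40 μM to 10 mM in HEPES/KCl/Mg(OAc)2 buffer, was flowed in while tiles were imaged over ~14 h. Baseline-normalised signals, also normalised to non-cleaving reference variants, gave per-tile medians that were fit to one- or two-exponential decays for kobs. kcat and KM resulted from weighted Michaelis–Menten fits across concentrations.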

[2] = variants of: B1; test: self-cleavage kobs at 640 uM GlcN6P; higher = faster cleavage; RNA array
Procedure, shortened: as §1

[3] = variants of: B1; test: self-cleavage kobs at 2500 uM GlcN6P; higher = faster cleavage; RNA array
Procedure, shortened: as §1

[4] = variants of: B1; test: KM; higher = weaker cofactor use; RNA array
Procedure, shortened: as §1

[5] = variants of: B1; test: self-cleavage kobs at 40 uM GlcN6P; higher = faster cleavage; RNA array
Procedure, shortened: as §1

[6] = variants of: B1; test: self-cleavage kobs at 160 uM GlcN6P; higher = faster cleavage; RNA array
Procedure, shortened: as §1

[7] = variants of: B1; test: self-cleavage kobs at 10000 uM GlcN6P; higher = faster cleavage; RNA array
Procedure, shortened: as §1

| Variant | kcat [1] [s⁻¹] | self-cleavage kobs at 640 uM GlcN6P [2] [s⁻¹] | self-cleavage kobs at 2500 uM GlcN6P [3] [s⁻¹] | KM [4] [µM] | self-cleavage kobs at 40 uM GlcN6P [5] [s⁻¹] | self-cleavage kobs at 160 uM GlcN6P [6] [s⁻¹] | self-cleavage kobs at 10000 uM GlcN6P [7] [s⁻¹] |
| --- | --- | --- | --- | --- | --- | --- | --- |
| U57A C70G | 3.91e-05 ± 1.5e-05 | 4.96e-05 ± 1.4e-05 | 6.55e-05 ± 1.6e-05 | – | – | – | – |
| U54G C71G | 0.00104 ± 0.00019 | 0.000398 ± 9e-05 | 0.000909 ± 0.0002 | 511 ± 150 | 8.73e-05 ± 8.8e-06 | 0.000192 ± 4.6e-05 | 0.0011 ± 0.00012 |
| C58U G66C | < 1e-05 | < 1e-05 | – | – | – | < 1e-05 | – |
| U57A C58U | 6.53e-05 ± 2.8e-06 | – | – | – | – | – | 2.39e-05 ± 8.3e-06 |
| C58A C67A | 0.000182 ± 3.1e-05 | 3.37e-05 ± 1.2e-05 | 0.000146 ± 4e-05 | 2300 ± 1000 | – | – | 0.000144 ± 2e-05 |
| U54A C68G | 9.86e-05 ± 2.8e-06 | 8.94e-05 ± 1.3e-05 | 0.000106 ± 1.9e-05 | 31 ± 7.5 | 5.44e-05 ± 1.6e-05 | 8.95e-05 ± 2.1e-05 | 9.77e-05 ± 9.3e-06 |
| U54A U57C | 0.000159 ± 5.5e-06 | 3.98e-05 ± 1e-05 | 8.52e-05 ± 1.3e-05 | 2020 ± 160 | – | – | 0.000134 ± 2.1e-05 |
| C58U | 0.00011 ± 3.8e-06 | 1.66e-05 ± 1.8e-06 | 3.96e-05 ± 1.2e-06 | 4350 ± 360 | < 1e-05 | – | 7.7e-05 ± 1.3e-06 |
| C58A | 0.000863 ± 0.00012 | 0.000118 ± 2.7e-06 | 0.000305 ± 7.2e-06 | 4110 ± 820 | 1.13e-05 ± 2.2e-06 | 3.84e-05 ± 2.2e-06 | 0.000665 ± 2.3e-05 |
| C58G | 0.000194 ± 8.4e-06 | 3.47e-05 ± 1.2e-06 | 8.3e-05 ± 1.6e-06 | 3180 ± 300 | – | 1.37e-05 ± 2.9e-06 | 0.000149 ± 2.3e-06 |
| C58U C67U | 2.38e-05 ± 3.4e-06 | – | 2.92e-05 ± 8e-06 | – | – | – | 2.01e-05 ± 6.4e-06 |
| U57C C71A | 2.47e-05 ± 4e-06 | – | 2.96e-05 ± 1e-05 | – | – | – | – |
| U55G | 0.0523 ± 0.0043 | 0.0103 ± 0.00037 | 0.0271 ± 0.0015 | 2390 ± 240 | 0.000889 ± 2.1e-05 | 0.00312 ± 0.00021 | 0.0436 ± 0.0021 |
| U55C | 0.0394 ± 0.0032 | 0.0091 ± 0.00035 | 0.0201 ± 0.001 | 2000 ± 200 | 0.000797 ± 1.8e-05 | 0.0027 ± 0.00018 | 0.0349 ± 0.0014 |
